Experimental data from patent US20120196804A1 (INDIANA UNIVERSITY RESEARCH AND TECHNOLOGY, published 2012).

Tests used:
GLP-1 receptor = test: cell-based or functional assay
glucagon receptor = test: cell-based or functional assay

| Binder | cAMP Induction, EC50 (luciferase reporter, HEK293) (GLP-1 receptor) [nM] | cAMP Induction, EC50 (luciferase reporter, HEK293) (glucagon receptor) [nM] |
| --- | --- | --- |
| HSQGTFTSDYSRYLDSRRAQDFVQWLMNK [Glucagon R12 K29] | 0.41 | 0.81 |
| HSQGTFTSDYSKYLDSRRAQDFVQWLMNTGPSSGAPPPS (C-terminal amide) [Glucagon-Cex] | 2.75 | 0.25 |
| HSQGTFTSDYSKYLDSRRAQDFVQWLMNTKRNR [Oxyntomodulin KRNR] | 3.21 | 2.77 |
